{"source": "patent US20260242504A1", "about": "(published 2026)", "binders": {"B1": {"name": "53D tribody (other)", "chain 1": "QVQLVQSGAEVKKPGASVKVSCKASGYSFTSYYMHWVKQSPGQGLEWIGRINPNNGVTLYNQKFKDRVTMTRDTSISTAYMELSRLRSDDTAVYYCARSTMITNYVMDYWGQGTLVTVSSASTKGPSVFPLAPSSKSTSGGTAALGCLVKDYFPEPVTVSWNSGALTSGVHTFPAVLQSSGLYSLSSVVTVPSSSLGTQTYICNVNHKPSNTKVDKKVEPKSCDKTHTGPGGGSPGQVQLVQSGAELKKPGASVKVSCKASGYTFTRYTMHWVRQAPGQCLEWMGYINPSRGYTNYNQKFKDKATLTADKSTSTAYMELRSLRSDDTAVYYCARYYDDHYSLDYWGQGTLVTVSSASGGGGSGGGGSGGGGSAGDIQLTQSPSILSASVGDRVTITCRASSSVSYMNWYQQKPGKAPKRWIYDTSKVASGVPYRFSGSGSGTEYTLTISSMQPEDFATYYCQQWSSNPLTFGCGTKVEIKSG", "chain 2": "not shown"}, "B2": {"name": "53G tribody (other)", "chain 1": "B1 chain 1", "chain 2": "not shown"}, "B3": {"name": "53P tribody (other)", "chain 1": "B1 chain 1", "chain 2": "not shown"}}}
{"molecular_target": "T1, recombinant human 5T4 protein (5T4/His) (UniProt Q13641 32-355)", "T1 chain": "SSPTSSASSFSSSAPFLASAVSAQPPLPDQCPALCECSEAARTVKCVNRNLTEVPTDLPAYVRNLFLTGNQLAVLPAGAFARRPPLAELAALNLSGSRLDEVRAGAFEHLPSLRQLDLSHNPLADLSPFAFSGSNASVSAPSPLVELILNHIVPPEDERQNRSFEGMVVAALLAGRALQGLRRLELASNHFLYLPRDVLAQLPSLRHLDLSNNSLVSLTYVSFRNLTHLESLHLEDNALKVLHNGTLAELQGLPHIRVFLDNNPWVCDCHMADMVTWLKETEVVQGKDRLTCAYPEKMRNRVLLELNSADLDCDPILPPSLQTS", "experiment": "ELISA", "units": {"EC50": "pM"}}
{"binder": "B1", "EC50": 790}
{"binder": "B2", "EC50": 780}
{"binder": "B3", "EC50": 840}
